Measured values reported in paper PMC7045643, “Allosteric inhibition of CRISPR-Cas9 by bacteriophage-derived peptides” (Genome Biology, 2020).

Tested on: catalytically inactive Cas9 (dCas9)
Experiment: ChIP-qPCR of dCas9 binding at AAVS1 on-target and off-target sites in Hela cells
Format: cell-based
Settings: AAVS1 on target and pre-determined off-target sites, two biological replicates, Fig. S9
Method: For ChIP experiments, low-passage Hela cells were seeded on to 15-cm plates at a density of 4 × 10^6 cells per plate. The next day, a total of 40.5 μg M13 G8PPD or M13 G8PFL plasmid, 20.25 μg 3×Flag-tagged dCas9 plasmid, and 20.25 μg sgRNA plasmid were transfected into cells using Lipofectamine 3000 (Invitrogen). Two biological replicates were performed for each condition. ChIP was performed with Simple ChIP Enzymatic Chromatin IP Kit (Cell Signaling Technology) following the manufacturer’s instructions. After 48 h, the cells were washed once with PBS, and 1.25 mL of 16% formaldehyde (Life Technologies) was added to 20 mL of serum-free DMEM for crosslinking to a final formaldehyde concentration of 1%. After 10 min of crosslinking at room temperature, the cells were harvested for the ChIP assay. The chromatin was sonicated using Branson digital sonifier for 10 cycles of “on/off” pulse with a 30-s interval. Fragmented chromatin was diluted and incubated with 2 μg anti-Flag Chip grade antibody (Sigma, USA) overnight at 4 °C. qPCR with immunoprecipitation-purified DNA as the template was used to analyze the effects of G8Ps on dCas9 binding at the on-target and off-target sites.

B1: M13 G8PFL: full-length M13 phage major coat protein G8P, expressed from plasmid in human cells (protein, UniProt P03619 1-74, looked up)
chain: MKKSVVAKIIAGSTLVIGSSAFAADDATSQAKAAFDSLTAQATEMSGYAWALVVLVVGATVGIKLFKKFVSRAS
modifications: full-length
notes: full-length M13 phage major coat protein G8P, expressed from plasmid in human cells
Q: With B1 as the molecule, how does the “binding specificity of dCas9 at on-target site” value read?
A: The value was “did not significantly improve”.
